Measured values published in paper doi:10.1101/2025.02.16.638521.

Molecular target: biotinylated Sos1^PRS peptide
Assay: BLI

“GST-tagged Grb2^SH3C (C-terminal SH3 domain of Grb2) (domain or fragment)” gave a Kd of 14.7 µM.
